Assay results as given in article PMC8324494 (Cell Reports Medicine, 2021).

Tests used:
[1] = target: human GPC2 on the surface of cells (GPC2 pLenti CMV puro vector) (Homo sapiens (Human)., UniProt Q8N158); assay: flow cytometry on cells
[2] = target: murine Gpc2 on the surface of cells (Gpc2 pLenti CMV puro vector) (Mus musculus (Mouse)., UniProt Q8BKV1); assay: flow cytometry on cells
[3] = target: endogenous GPC2 on high-GPC2-expressing neuroblastoma cell lines (Homo sapiens (Human)., UniProt Q8N158); assay: flow cytometry on cells
endogenous GPC2 on high-GPC2-expressing neuroblastoma cell lines, sequence (Q8N158 24-554): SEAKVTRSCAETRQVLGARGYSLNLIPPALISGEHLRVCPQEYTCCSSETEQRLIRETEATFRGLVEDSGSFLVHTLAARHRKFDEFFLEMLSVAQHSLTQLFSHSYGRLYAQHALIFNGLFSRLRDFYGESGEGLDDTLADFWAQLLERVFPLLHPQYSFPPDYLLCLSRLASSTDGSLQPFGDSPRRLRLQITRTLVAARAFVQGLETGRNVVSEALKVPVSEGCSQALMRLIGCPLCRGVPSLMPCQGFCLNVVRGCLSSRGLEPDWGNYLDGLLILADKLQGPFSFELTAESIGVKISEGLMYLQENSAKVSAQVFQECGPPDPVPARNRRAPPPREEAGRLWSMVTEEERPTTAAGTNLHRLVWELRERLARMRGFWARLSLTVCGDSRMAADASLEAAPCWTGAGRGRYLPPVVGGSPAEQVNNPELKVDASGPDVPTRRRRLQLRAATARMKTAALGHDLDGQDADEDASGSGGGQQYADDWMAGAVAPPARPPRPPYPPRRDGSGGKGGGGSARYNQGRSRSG

[4] = target: GPC2 clone of the Membrane Proteome Array (Homo sapiens (Human)., UniProt Q8N158); assay: flow cytometry on cells
GPC2 clone of the Membrane Proteome Array, sequence (Q8N158 24-554): as above

[5] = target: GPC2^24-493 (fully glycanated) (Homo sapiens (Human)., UniProt Q8N158); assay: BLI
GPC2^24-493 (fully glycanated), sequence (Q8N158 24-493): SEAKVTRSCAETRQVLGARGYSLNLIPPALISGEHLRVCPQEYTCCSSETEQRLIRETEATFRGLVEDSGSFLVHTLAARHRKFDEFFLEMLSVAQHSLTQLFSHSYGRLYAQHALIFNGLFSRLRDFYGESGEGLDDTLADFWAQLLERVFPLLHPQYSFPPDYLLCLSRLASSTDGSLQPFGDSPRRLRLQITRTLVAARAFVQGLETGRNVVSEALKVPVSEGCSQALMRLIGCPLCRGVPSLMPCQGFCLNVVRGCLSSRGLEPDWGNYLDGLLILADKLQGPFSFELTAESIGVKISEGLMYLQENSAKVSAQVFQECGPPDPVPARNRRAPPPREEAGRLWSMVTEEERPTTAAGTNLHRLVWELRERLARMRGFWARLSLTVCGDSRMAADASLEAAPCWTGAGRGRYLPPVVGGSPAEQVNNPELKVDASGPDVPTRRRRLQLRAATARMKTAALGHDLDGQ

[6] = target: GPC2^24-554 (fully glycanated) (Homo sapiens (Human)., UniProt Q8N158); assay: BLI
GPC2^24-554 (fully glycanated), sequence (Q8N158 24-554): as the sequence (Q8N158 24-554) above

Measured: binding result

murine Gpc2 on the surface of cells (Gpc2 pLenti CMV puro vector), sequence (Q8BKV1 22-556): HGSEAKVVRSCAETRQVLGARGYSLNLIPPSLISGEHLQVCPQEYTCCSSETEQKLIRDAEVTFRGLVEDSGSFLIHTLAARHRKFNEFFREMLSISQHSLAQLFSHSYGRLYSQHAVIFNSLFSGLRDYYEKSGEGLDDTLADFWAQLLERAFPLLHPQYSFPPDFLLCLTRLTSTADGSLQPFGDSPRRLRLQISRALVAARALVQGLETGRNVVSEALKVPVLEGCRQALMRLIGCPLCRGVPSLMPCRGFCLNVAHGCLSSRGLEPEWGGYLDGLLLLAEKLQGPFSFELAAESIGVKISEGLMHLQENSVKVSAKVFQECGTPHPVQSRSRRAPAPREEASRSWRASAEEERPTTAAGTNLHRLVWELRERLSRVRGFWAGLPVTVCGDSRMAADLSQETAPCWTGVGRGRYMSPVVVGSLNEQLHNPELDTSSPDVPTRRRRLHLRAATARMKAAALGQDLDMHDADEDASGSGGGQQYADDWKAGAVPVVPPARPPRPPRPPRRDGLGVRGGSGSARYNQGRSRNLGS
human GPC2 on the surface of cells (GPC2 pLenti CMV puro vector), sequence (Q8N158 24-554): as the sequence (Q8N158 24-554) above

B1: D3-GPC2-IgG1 (fully human GPC2 antibody, full-length human IgG1) (antibody, V domains shown)
VH: EVQLVETGGGVVKPGGSLRLSCAASGFTFSDYYMSWIRQAPGKGLEWVSYISSSGSTIYYADSVKGRFTISRDNSKNTLYLQMNSLRAEDTAVYYCARESGYDYVFDYWGQGTLVAVSS
VL: DIQMTQSPSTLSAFVGDRVTITCRASQSISSWLAWYQQKPGKAPKLLIYAASTLQSGVPSRFSGSGSGTEFTLTISSLQPEDFATYYCQQLNSYPITFGQGTRLEIK
binds: [1] | [2] | [3] | [4]

B2: D3-GPC2 antigen-binding fragment (D3-GPC2-Fab) (Fab, V domains shown)
VH: EVQLVETGGGVVKPGGSLRLSCAASGFTFSDYYMSWIRQAPGKGLEWVSYISSSGSTIYYADSVKGRFTISRDNSKNTLYLQMNSLRAEDTAVYYCARESGYDYVFDYWGQGTLVAVSS
VL: DIQMTQSPSTLSAFVGDRVTITCRASQSISSWLAWYQQKPGKAPKLLIYAASTLQSGVPSRFSGSGSGTEFTLTISSLQPEDFATYYCQQLNSYPITFGQGTRLEIK
binds: [5] | [6]
